Test results taken from patent publication US20100222256A1 (BIOKINE THERAPEUTICS, published 2010).
Bridges are numbered along the chain shown (N, C = ends). Where no end group is shown, it is not given here. [ ]: non-standard residue; d: D form. Cit = NC(=O)NCCC[C@H](N)C(=O)O; Nal = naphthylalanine

B1: TC14012 (peptide)
peptide: RRXCYXKXPYRXCR
modifications: Nal at 3; L-citrulline at 6; D-citrulline at 8; L-citrulline at 12; C-terminal amide (NH2); Cys4-Cys13 disulfide (cyclised by air oxidation)
B2: TN14003 (peptide)
peptide: RR[Nal]CY[Cit]K[dK]PYR[Cit]CR-NH2
modifications: disulfide 4-13
B3: TN14005 (peptide)
peptide: RRXCYRKXPYRXCR
modifications: Nal at 3; D-Cit at 8; Cit at 12; C-terminal amide (NH2); Cys4-Cys13 disulfide (cyclised by air oxidation)
B4: TC14020 (peptide)
peptide: RRXCYRKXPYXXCR
modifications: Nal at 3; D-Cit at 8; Cit at 11 and 12; C-terminal OH as printed; Cys4-Cys13 disulfide (cyclised by air oxidation)
B5: TC14018 (peptide)
peptide: XRXCYRKXPYRXCR
modifications: Cit at 1; Nal at 3; D-Cit at 8; Cit at 12; C-terminal amide (NH2); Cys4-Cys13 disulfide (cyclised by air oxidation)
B6: TC14005 (peptide)
peptide: RRXCYRKXPYRXCR
modifications: not fully specified; Nal at 3; D-citrulline at 8; L-citrulline at 12; C-terminal OH; Cys4-Cys13 disulfide (cyclised by air oxidation)
B7: TC14003 (peptide)
peptide: RR[Nal]CY[Cit]K[dK]PYR[Cit]CR-OH
modifications: disulfide 4-13
B8: TC14011 (peptide)
peptide: RRXCYXKXPYRXCR
modifications: Nal at 3; Cit at 6; D-Cit at 8; Cit at 12; C-terminal OH; Cys4-Cys13 disulfide (cyclised by air oxidation)

Biological target: CXCR4 ligand
Assay: cell-based or functional assay

Binder	EC50 (nM): anti-HIV activity, concentration where MT-4 cell death by HIV-1 (IIIB) infection is inhibited by 50% (MTT method) [nM]
B1	0.4
B2	0.6
B3	4.6
B4	2.7
B5	1.2
B6	4
B7	2.8
B8	0.5
